From US20250282892A1 (BIOMUNEX PHARMACEUTICALS, published 2025) come the findings set out here.

The target of experiment [1] is T1, EGFR His tag (UniProt P00533 25-645).
T1 construct: Recombinant His-tagged antigen; not shown: His tag
Description: direct ELISA, His-tagged antigen coated, anti-human Fc-HRP detection.

In experiment [2] the target is T2, HER3 protein expressed on the cell surface of SW-1990 cells (UniProt P21860 20-1342, limits assumed).
T2 construct: whole, on cells; SW-1990 cells carry HER3 and EGFR together; the flow cytometry signal is not split between them
Put plainly: flow cytometry on SW-1990 cells (FIG. 10).

The target of experiment [3] is T3, EGFR protein expressed on the cell surface of SW-1990 cells (UniProt P00533 25-1210, limits assumed).
T3 construct: whole, on cells; SW-1990 cells carry HER3 and EGFR together; the flow cytometry signal is not split between them
Description: flow cytometry on SW-1990 cells (FIG. 10).

The target in experiment [4] is T4, HER3 His tag (UniProt P21860 20-643).
T4 construct: Recombinant His-tagged antigen; not shown: His tag
Put plainly: direct ELISA, His-tagged antigen coated, anti-human Fc-HRP detection.

B1: Matuzumab (antibody, V domains shown)
VH: QVQLVQSGAEVKKPGASVKVSCKASGYTFTSHWMHWVRQAPGQGLEWIGEFNPSNGRTNYNEKFKSKATMTVDTSTNTAYMELSSLRSEDTAVYYCASRDYDYAGRYFDYWGQGTLVTVSS
VL: DIQMTQSPSSLSASVGDRVTITCSASSSVTYMYWYQQKPGKAPKLLIYDTSNLASGVPSRFSGSGSGTDYTFTISSLQPEDIATYYCQQWSSHIFTFGQGTKVEIK
notes: Parental monoclonal antibody used as positive control; also called EMD72000; parental antibody (anti-EGFR)
B1 registered an EC50 in experiment [1] of 0.09 nM.

B2: BMX003-010 (humanized Patri-Cetu-Fc) (bispecific antibody, human IgG1, kappa)
heavy: not shown
light 1: not shown
light 2: EIVLTQSPDFQSVTPKEKVTITCRASQSIGTNIHWYQQKPDQSPKLLIKYASESISGVPSRFSGSGSGTDFTLTINSLEAEDAATYYCQQNNNWPTTFGAGTKLEIKRTVAAPSVFIFPPSDEQLKSGTASVTCLLNNFYPREAKVQWKVDNALQSGNSQESVTEQDSKDSTYSLVSTLTLSKADYEKHKVYACEVTHQGLSSPVTKSFNRGEC
As for B2, the binding result in experiment [2] and in experiment [3] was “binds” in each case.

B3: BMX003-011 (humanized Patri-Cetu-Fc modified) (bispecific antibody, human IgG1, kappa)
heavy: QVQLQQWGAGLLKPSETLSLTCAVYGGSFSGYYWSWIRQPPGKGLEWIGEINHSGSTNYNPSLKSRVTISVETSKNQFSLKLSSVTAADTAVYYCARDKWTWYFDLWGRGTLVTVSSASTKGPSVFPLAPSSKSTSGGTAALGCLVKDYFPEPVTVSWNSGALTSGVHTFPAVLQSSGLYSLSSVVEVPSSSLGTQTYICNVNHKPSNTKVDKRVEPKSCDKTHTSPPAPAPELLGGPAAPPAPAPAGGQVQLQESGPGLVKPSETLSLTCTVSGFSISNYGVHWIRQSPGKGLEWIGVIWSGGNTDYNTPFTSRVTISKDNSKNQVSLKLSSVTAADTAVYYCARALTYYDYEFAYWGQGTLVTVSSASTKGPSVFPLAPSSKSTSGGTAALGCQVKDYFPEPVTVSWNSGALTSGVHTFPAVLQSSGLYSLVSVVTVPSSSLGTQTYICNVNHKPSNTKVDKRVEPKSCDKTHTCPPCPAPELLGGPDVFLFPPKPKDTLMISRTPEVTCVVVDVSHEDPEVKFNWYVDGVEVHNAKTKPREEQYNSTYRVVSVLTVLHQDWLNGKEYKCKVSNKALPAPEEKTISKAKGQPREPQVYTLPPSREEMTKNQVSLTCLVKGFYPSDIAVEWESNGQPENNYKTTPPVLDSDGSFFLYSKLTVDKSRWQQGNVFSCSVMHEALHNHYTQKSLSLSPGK
light 1: not shown
light 2: EIVLTQSPDFQSVTPKEKVTITCRASQSIGTNIHWYQQKPDQSPKLLIKYASESISGVPSRFSGSGSGTDFTLTINSLEAEDAATYYCQQNNNWPTTFGAGTKLEIKRTVAAPSVFIFPPSDEQLKSGTASVTCLLNNFYPREAKVQWKVDNALQSGNSQESVTEQDSKDSTYSLVSTLTLSKADYEKHKVYACEVTHQGLSSPVTKSFNRGEC
notes: Identical to BMX003-010 except for 2 mutations in the Fc domain (S239D and I332E, printed '1332E')
As for B3, the binding result in experiment [2] and in experiment [3] was “binds” throughout.

B4: Patri-Matu-Fc (bispecific antibody, human IgG1, kappa)
heavy: not shown
light 1: not shown
light 2: DIQMTQSPSSLSASVGDRVTITCSASSSVTYMYWYQQKPGKAPKLLIYDTSNLASGVPSRFSGSGSGTDYTFTISSLQPEDIATYYCQQWSSHIFTFGQGTKVEIKRTVAAPSVFIFPPSDEQLKSGTASVTCLLNNFYPREAKVQWKVDNALQSGNSQESVTEQDSKDSTYSLVSTLTLSKADYEKHKVYACEVTHQGLSSPVTKSFNRGEC
notes: Tetravalent tandem Fab-Fc: external Fabs patritumab (anti-HER3), internal Fabs matuzumab (anti-EGFR); 2 heavy chains and 4 light chains; also called 3Patri-1Matu-Fc
Regarding B4, the EC50 is 0.39 nM in experiment [1] and 0.16 nM in experiment [4].
